From patent US20080139790A1 (ARANA THERAPEUTICS, published 2008) come the findings set out here.

To fix the notation:
T1: rat MOG (myelin-oligodendrocyte glycoprotein) (rat, UniProt Q63345 28-245)
T1 construct: mature; Not a purified protein: identified by the band size of about 25 kDa in a western blot of rat spinal cord lysate; also called antigen of M26; protein of size 25 kDa
T1 sequence (looked up): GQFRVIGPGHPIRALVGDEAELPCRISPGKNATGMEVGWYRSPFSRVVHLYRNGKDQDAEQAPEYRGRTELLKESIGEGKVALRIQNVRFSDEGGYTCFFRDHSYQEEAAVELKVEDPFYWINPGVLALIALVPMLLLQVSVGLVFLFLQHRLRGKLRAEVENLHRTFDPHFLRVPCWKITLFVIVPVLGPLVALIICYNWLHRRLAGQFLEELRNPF

B1: CDR2-substituted domain antibody SEQ ID No 26 (other)
chain: DIQMTQSPSSLSASGDRVTITCRASQSIDSYLHWYQQKPGKAPKLLIYAASNRASGVPSRFSGSGSGTDFTLTISSLQPEDFATYYCQQVVWRPFTFGQGTKVEIKR
notes: not shown: 6xHIS tag introduced by vector pBAD/gIII
B2: unsubstituted acceptor anti-TNFα domain antibody (SEQ ID No: 7) (other)
chain: DIQMTQSPSSLSASGDRVTITCRASQSIDSYLHWYQQKPGKAPKLLIYSASELQSGVPSRFSGSGSGTDFTLTISSLQPEDFATYYCQQVVWRPFTFGQGTKVEIKR
notes: Single variable domain (domain antibody, dAb) from Basran et al. WO 2004/081026, CDR2 SASELQS; also called acceptor domain antibody; not shown: 6xHIS tag from vector pBAD/gIII (detection was by anti-HIS antibody); its positi
B3: CDR2-substituted domain antibody SEQ ID No 31 (other)
chain: DIQMTQSPSSLSASGDRVTITCRASQSIDSYLHWYQQKPGKAPKLLIYDASSLQPGVPSRFSGSGSGTDFTLTISSLQPEDFATYYCQQVVWRPFTFGQGTKVEIKR
notes: as for B1
B4: CDR2-substituted domain antibody SEQ ID No 29 (other)
chain: DIQMTQSPSSLSASGDRVTITCRASQSIDSYLHWYQQKPGKAPKLLIYRVSNRASGVPSRFSGSGSGTDFTLTISSLQPEDFATYYCQQVVWRPFTFGQGTKVEIKR
notes: as for B1
B5: CDR2-substituted domain antibody SEQ ID No 28 (other)
chain: DIQMTQSPSSLSASGDRVTITCRASQSIDSYLHWYQQKPGKAPKLLIYYASFLQGGVPSRFSGSGSGTDFTLTISSLQPEDFATYYCQQVVWRPFTFGQGTKVEIKR
notes: as for B1
B6: CDR2-substituted domain antibody SEQ ID No 25 (other)
chain: DIQMTQSPSSLSASGDRVTITCRASQSIDSYLHWYQQKPGKAPKLLIYKVSNRASGVPSRFSGSGSGTDFTLTISSLQPEDFATYYCQQVVWRPFTFGQGTKVEIKR
notes: Secretory signal peptide from the vector, expressed in E. coli periplasm; not shown: 6xHIS tag introduced by vector pBAD/gIII
B7: AB138 (antibody, human IgG1, kappa, V domains shown)
VH: QVQLVQSGAEVKKPGASVKVSCKASGYTFTSYAISWARQPPGQGLEWMGAFDPEYGSTTYAQKFQGRVTMTADTSTSTAYMELSSLRPEDTAVYYCARDVNFGNYFDYWGQGTLVTVSS
VL: ELVMTQSPATLSLSPGERATVSCRAGQSVSYYLAWYQQKPGQAPRLLIYGASTRATGIPARFSGSRSGTDFTLTISSLEPEDFAVYYCQQYSSWPPTFGQGTKLEIKR
notes: Expressed in CHOK1SV cells, purified on Protein A; also called marmoset human fusion antibody; MOG specific marmoset derived antibody variable regions with human IgG1 / kappa constant regions

The first assay deals with T2, TNF-α (Peprotech Cat No: 300-01A) (UniProt P01375 77-233).
T2 construct: Coated on the ELISA plate at 1 µg/mL
T2 sequence (P01375 77-233 limits assumed): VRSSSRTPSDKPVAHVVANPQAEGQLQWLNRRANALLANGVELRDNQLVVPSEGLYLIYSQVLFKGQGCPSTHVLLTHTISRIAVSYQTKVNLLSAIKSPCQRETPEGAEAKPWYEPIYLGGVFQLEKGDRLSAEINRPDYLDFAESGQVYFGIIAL
The experiment in a line: ELISA, TNF-α coated at 1 µg/mL, detection with anti-HIS HRP. The protocol:
TNF-α (Peprotech Cat No: 300-01A) was diluted to 1 μg/mL in carbonate coating buffer ([…] pH 9.6). 100 μL of this solution was added to a well of a 96 well plate and incubated at 4° C. overnight in a humidified container. The plate was then washed three times with wash buffer (0.01M PBS pH 7.2, 0.05% Tween-20) and then three times with 0.01M PBS pH 7.2. The wells were then blocked by adding 200 μL blocking buffer (1% w/v BSA in 0.01M PBS pH 7.2) to each well and incubating the plate at 25° C., in a humidified container, for 1 hour. Desalted domain antibody protein sample was diluted in antibody diluent (1% w/v BSA, 0.05% Tween-20 in 0.01M PBS pH 7.2) and added to the wells contain TNF-α and allowed to incubate for 1 hour at 25° C. The plate was then washed as previously described. 100 μL of Anti-HIS antibody HRP conjugate (Sigma-Aldrich, Australia Cat No: A7058) at 1:2000 in antibody diluent was used to detect bound domain antibody. Wells with antibody diluent only were used to assess background absorbance. After incubation at 25° C., in a humidified container, for 1 hour the plate washed again as previously described. 100 μL TMB substrate solution (Zymed, Cat No: 00-2023) was added to each well and the colour allowed to develop for 4 min. 100 μL of 1M HCl was added to terminate the colour development reaction and absorbance was determined at 450 nm (ref. 620 nm)
A general note: An ELISA detects its analyte on a solid surface through an enzyme-linked reagent.
B1: the binding result is reported as “binds”.

Take B2: the binding result is “binds”. On the same count and under the same terms, the result for B3 reads “binds”; that for B4, “binds”.

Take B5: the binding result is given as “binds”. Still for that read-out and setting: the value for B6 was “binds”.

For the next assay, the target named is T1, rat MOG (myelin-oligodendrocyte …). The assay is described as follows: western blot of rat spinal cord lysate, AB138 at 10 ug/mL, anti-human IgG HRP. The protocol:
The ability of AB138 to retain binding to the antigen of M26, rat MOG (myelin-oligodendrocyte glycoprotein), was investigated by Western Blot. 130 mg of rat spinal cord (IMVS, Australia) was homogenized in 1.8 ml CelLytic M Cell Lysis Reagent (SIGMA, C2978) and incubated for 30 minutes at 4° C. Further homogenization was performed by drawing the lysate through a 27 g1/2 needle several times followed by centrifugation at 4° C. and 13000 g for 30 minutes. The pellet and supernatant was diluted into SDS-PAGE sample buffer (125 mM Tris-HCl pH 6.8, 5% SDS, 0.25% bromophenol blue, 25% glycerol). Along with this 200 μl CHOK1SV cells at 1×10⁶ viable cells per ml were spun down at 13000×g at 4° C. for 1 minute and resuspended in 200 μl CelLytic M Cell Lysis Reagent (SIGMA). Following centrifugation at 4° C. and 13000×g for 30 minutes the supernatant was mixed with the appropriate amount of SDS-PAGE sample buffer. All samples, along with a sample of molecular weight markers, were run on a 4-20% Novex pre-cast gel (Invitrogen, Australia) for 2 hours at 120V. Proteins were then transferred to PVDF (BioRad, Australia) using a western blot apparatus in 1× Tris-Glycine Buffer with 20% methanol (BioRad, Cat 161+-0771) at 4° C. at 250 mA for 2 hours. […] Following washing, bound antibody was detected using the ECL Western Blotting Analysis System, (Amersham Biosciences Cat: RPN2109). […]
Background: Immunoblotting shows a protein as a band on a membrane.
In the case of B7, the binding result is listed as “binds”.
